B1: LpxC^Δ293-305-S-Tag (enzyme)
chain: MIKQRTLKRIVQATGVGLHTGKKVTLTLRPAPANTGVIYRRTDLNPPVDFPADAKSVRDTMLCTCLVNEHDVRISTVEHLNAALAGLGIDNIVIEVNAPEIPIMDGSAAPFVYLLLDAGIDELNCAKKFVRIKETVRVEDGDKWAEFRPYNGFTLDFTIDFNHPAIDSSSQRYAMNFSADAFMRQISRARTFGFMRDIEYLQSRGLCLGGSFDCAIVVDDYRVLNEDGLRFEDEFVRHKMLDAIGDLFMCGHNIIGAFTAYKSGHALNNKLLQAVLAKQEAWEFVTFQDDAE
notes: not shown: S-tag, C-terminal, kept
B2: 6xHisN-LapB^ΔTM (LapB^Δ1-22aa) (domain or fragment, S. Typhimurium, UniProt Q7CQG6 23-389, looked up)
chain: SAQQTKQDEANRLSRDYVAGVNFLLSNQQDKAVDLFLDMLKEDTGTVEAHLTLGNLFRSRGEVDRAIRIHQTLMESASLTYEQRLLAVQQLGRDYMAAGLYDRAEDMFNQLTDETEFRVGALQQLLQIYQLTSDWQKAIEVAERLVKLGKDKQRIEIAHFYCELALQQMGNDDMDRAMALLKKGAAADKNSARVSIMMGRVYMARGDYAKAVESLQRVIVQDKELVSETLEMLQTCYQQLGKNAEWAEFLRRAVEENTGAGAELMLADILEAREGSDAAQVYITRQLQRHPTMRVFHKLMDYHLNEAEEGRAKESLMVLRDMVGEQVRSKPRYRCQKCGFTAYTLYWHCPSCRAWSTIKPIRGLDGQ
notes: LPS assembly protein B (LapB/YciM), S. Typhimurium; transmembrane segment (residues 1-22) removed and replaced by an N-terminal polyhistidine tag; By calibrated gel filtration a homotrimer when alone, and two copies in the complex with one LpxC; also called 6xHisNLapB^Δ1-22; LapB cytosolic domain; source: E. coli BL21 (DE3), pACYC-Duet1, IPTG; in soluble lysate for the microscale co-purification; …

Legend:
[1] = biological target: B2; test: SEC; details: both partners purified
[2] = biological target: the molecule itself; test: SEC; calibrated Superdex 200 Increase 10/300 GL; purified LapB^ΔTM alone, 0.5 mg/mL; 20 mM HEPES, 300 mM NaCl, 10% glycerol, 1 mM DTT, pH 7.0
[3] = biological target: the molecule itself; test: SEC; calibrated Superdex 200 Increase 10/300 GL; co-purified LapB^ΔTM-LpxC^Δ293-305 complex, 0.5 mg/mL; 20 mM HEPES, 300 mM NaCl, 10% glycerol, 1 mM DTT, pH 7.0

Binder | stoichiometry N [1] [LpxC per LapB chain] | stoichiometry N [2] | stoichiometry N [3]
B1 | 0.5 |  | 
B2 |  | 3 | 2

Reference: PMC11025326 (Journal of Bacteriology, 2024)
